Source: patent US20200147178A1 (SYNERKINE PHARMA B V, published 2020)

Molecular target: the molecule itself
Assay: HP-SEC, self-association
Method: To determine the molecular weight of the IL4-IL10 fusion protein, a High Performance Size Exclusion Chromatography (HP-SEC) assay was performed. The gel filtration (BioSuite 125 4 μm UHR SEC Column; Waters; Cat #186002161) was performed on a High-Performance Liquid Chromatography System (Shimadzu) with 50 mM phosphate buffer containing 0.5 M NaCl as mobile phase. The column was calibrated prior to the run using a protein mix of thyroglobulin, bovine serum albumen, carbonic anhydrase, myoglobulin, and ribonuclease. The IL4-IL10 fusion protein purified by cation exchange was obtained by pooling and concentrating the chromatography fractions with the highest IL4-IL10 fusion protein content (2 ml of pooled fractions was concentrated to 100 μl, containing 2 μg of IL4-IL10 fusion protein). Fifty μl of 20 μg/ml of pooled IL4-IL10 fusion protein was injected and ran trough the column at a flow rate of 0.35 ml/min and under a pressure of 35 bar. Fractions of 175 μl were collected and the IL4 and IL10 content was measured in the above described IL4 and IL10 ELISA (1/500 dilution). Similar runs with recombinant human IL4 (Sigma, Cat #14269) and recombinant human IL10 (Sigma, Cat #19276) were performed to compare the molecular size of the IL4-IL10 fusion protein with that of the wild-type cytokines.

Row | Protein | binding result
1 | recombinant human IL10 (Sigma, Cat #19276) (ligand, UniProt P22301 19-178, looked up, also called recombinant IL10; wild-type IL10) SPGQGTQSENSCTHFPGNLPNMLRDLRDAFSRVKTFFQMKDQLDNLLLKESLLEDFKGYLGCQALSEMIQFYLEEVMPQAENQDPDIKAHVNSLGENLKTLRLRLRRCHRFLPCENKSKAVEQVKNAFNKLQEKGIYKAMSEFDIFINYIEAYMTMKIRN | binds
2 | IL4-IL10 fusion protein (other, glycosylated (two glycoforms on the blot, one band after PNGaseF); made with co-transfected sialyltransferase to cap the glycans with sialic acid; sites not stated, On the Western blot it was reduced and denatured; also called IL4-10 fusion protein; IL4-IL10 protein) HKCDITLQEIIKTLNSLTEQKTLCTELTVTDIFAASKNTTEKETFCRAATVLRQFYSHHEKDTRCLGATAQQFHRHKQLIRFLKRLDRNLWGLAGLNSCPVKEANQSTLENFLERLKTIMREKYSKCSSGSGGGGSGTSPGQGTQSENSCTHFPGNLPNMLRDLRDAFSRVKTFFQMKDQLDNLLLKESLLEDFKGYLGCQALSEMIQFYLEEVMPQAENQDPDIKAHVNSLGENLKTLRLRLRRCHRFLPCENKSKAVEQVKNAFNKLQEKGIYKAMSEFDIFINYIEAYMTMKIRN | binds
